Target: Recombinant Human LRP1 cluster III protein, Fc Tag (human) (UniProt Q07954)
Test: SPR; LRP1 cluster III-Fc captured on a Protein G chip (1800 RU); tau1N4R as analyte 0.012-1 μM, single-cycle kinetics; HBS-N with 0.005% P20 and 1 mM CaCl2; 1:1 Langmuir model

Sequence of Recombinant Human LRP1 cluster III protein, Fc Tag (human) (Q07954 2522-2940): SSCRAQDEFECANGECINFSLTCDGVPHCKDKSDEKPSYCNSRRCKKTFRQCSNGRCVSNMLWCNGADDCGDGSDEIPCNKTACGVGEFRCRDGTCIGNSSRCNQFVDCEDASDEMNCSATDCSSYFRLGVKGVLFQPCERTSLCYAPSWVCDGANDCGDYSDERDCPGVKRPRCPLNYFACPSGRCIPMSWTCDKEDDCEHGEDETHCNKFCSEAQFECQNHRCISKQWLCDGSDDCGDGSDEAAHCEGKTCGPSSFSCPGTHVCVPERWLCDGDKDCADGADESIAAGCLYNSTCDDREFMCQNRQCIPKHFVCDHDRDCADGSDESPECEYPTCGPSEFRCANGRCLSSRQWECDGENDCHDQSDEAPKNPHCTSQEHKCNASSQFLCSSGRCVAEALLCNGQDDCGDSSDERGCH

Kd: 91 nM
Substance: tau1N4R (from UniProt P10636-6 1-383) (natural protein)

— publication PMC11965310
